pKd: −log10 of the molar value.
What was measured:
[1] = molecular target: LC8 dynein light chain (DYNLL2), full-length, His6-tagged (UniProt Q96FJ2); test: SPR; ProteOn XPR36, HTG chip; His6-LC8 immobilised on Ni2+-NTA surface at three densities (1200, 900, 600 RU); peptides injected at five concentrations, 60 ul/min; 20 mM Hepes, 150 mM NaCl, 0.05% Tween-20, 0.1 mM TCEP, 50 uM EDTA, pH 7.5; 1:1 Langmuir model; Kd is the mean of the kinetic and the equilibrium analysis; apparent
[2] = molecular target: LC8 dynein light chain (DYNLL2), full-length, His6-tagged (UniProt Q96FJ2); test: SPR; ProteOn XPR36, HTG chip; His6-LC8 immobilised on Ni2+-NTA at three densities (1200, 900, 600 RU); peptides injected at five concentrations, 60 ul/min, 400 s, dissociation 600 s; 20 mM Hepes, 150 mM NaCl, 0.05% Tween-20, 0.1 mM TCEP, 50 uM EDTA, pH 7.5; 1:1 Langmuir global fit; Kd is the mean of the kinetic and the equilibrium analysis, SD from three individual Kd values

Sequence of LC8 dynein light chain (DYNLL2), full-length, His6-tagged (Q96FJ2 whole entry): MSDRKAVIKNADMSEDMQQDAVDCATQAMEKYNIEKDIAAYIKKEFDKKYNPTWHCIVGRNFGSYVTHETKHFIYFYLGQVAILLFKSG

| pKd [1] | pKd [2] | Substance |
| --- | --- | --- |
| 5.92 | – | MPHOSPH9 LC8 binding motif peptide (motif start 909) |
| – | 5.92 | MPHOSPH9 LC8 binding motif peptide (start 909) |

Reference: PMC5746249
